{"source": "paper PMC9009768", "about": "(PLoS Pathogens, 2022)", "binders": {"B1": {"name": "GST-WSNNP (natural protein)", "chain": "MATKGTKRSYEQMETDGERQNATEIRASVGKMIGGIGRFYIQMCTELKLSDYEGRLIQNSLTIERMVLSAFDERRNKYLEEHPSAGKDPKKTGGPIYRRVDGKWMRELILYDKEEIRRIWRQANNGDDATAGLTHMMIWHSNLNDATYQRTRALVRTGMDPRMCSLMQGSTLPRRSGAAGAAVKGVGTMVMELIRMIKRGINDRNFWRGENGRRTRIAYERMCNILKGKFQTAAQRAMVDQVRESRNPGNAEFEDLIFLARSALILRGSVAHKSCLPACVYGPAVASGYDFEREGYSLVGIDPFRLLQNSQVYSLIRPNENPAHKSQLVWMACHSAAFEDLRVSSFIRGTKVVPRGKLSTRGVQIASNENMETMESSTLELRSRYWAIRTRSGGNTNQQRASSGQISIQPTFSVQRNLPFDRPTIMAAFTGNTEGRTSDMRTEIIRLMESARPEDVSFQGRGVFELSDEKAASPIVPSFDMSNEGSYFFGDNAEEYDN"}}, "biological_target": "T1, His-tagged PIAS1 (human, UniProt O75925 1-651)", "T1 construct": "also called His-PIAS1; purified PIAS1", "T1 sequence (O75925 whole entry)": "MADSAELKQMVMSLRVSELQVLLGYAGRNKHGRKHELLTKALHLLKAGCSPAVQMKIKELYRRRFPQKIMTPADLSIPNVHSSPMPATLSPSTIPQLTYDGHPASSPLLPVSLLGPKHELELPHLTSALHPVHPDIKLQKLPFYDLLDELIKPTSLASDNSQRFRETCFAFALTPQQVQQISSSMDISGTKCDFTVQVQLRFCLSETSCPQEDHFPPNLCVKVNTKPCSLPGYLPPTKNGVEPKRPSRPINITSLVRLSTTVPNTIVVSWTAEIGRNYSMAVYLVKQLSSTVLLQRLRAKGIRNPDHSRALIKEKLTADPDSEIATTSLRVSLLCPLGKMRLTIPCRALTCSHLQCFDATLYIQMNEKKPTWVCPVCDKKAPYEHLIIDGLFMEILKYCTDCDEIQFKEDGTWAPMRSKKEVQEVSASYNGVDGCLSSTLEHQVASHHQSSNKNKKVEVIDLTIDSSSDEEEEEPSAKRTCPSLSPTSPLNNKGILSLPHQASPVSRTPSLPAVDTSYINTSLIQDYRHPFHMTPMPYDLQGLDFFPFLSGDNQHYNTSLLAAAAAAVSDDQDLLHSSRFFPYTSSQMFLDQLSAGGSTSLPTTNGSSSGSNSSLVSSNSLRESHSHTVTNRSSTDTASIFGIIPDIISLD", "assay": "pull-down", "details": "both partners purified", "data": [{"binder": "B1", "values": [{"measurement": "binding result", "value": "binds"}]}]}
